From patent US10155934B2, “Cytochrome P450 polypeptide with increased enzyme activity” (SANOFI, priority 2014, dated 2018)

Assays:
cholesterol [1] = assay: In vivo conversion of cholesterol into pregnenolone by recombinant Bacillus megaterium expressing the P450scc polypeptide; type: cell-based; conditions: 300 μM cholesterol, Bacillus megaterium MS941, assessed after 24 h and 48 h (FIGS. 3 and 4)
cholesterol [2] = assay: In vitro conversion assay of cholesterol by purified CYP11A1 variants with Adx and AdR; type: biochemical; conditions: 20 μM cholesterol, saturating Adx and AdR; for activity, SA4 compared with SA6 (in vitro conversion of cholesterol): 1 μM enzyme
Procedure: For in vitro enzyme assays, 150 mM of HEPES buffer, adjusted to pH 7.4, containing 0.05% Tween-20 and 1 mM MgCl2, were applied as reaction buffer. 1 unit of glucose-6-phosphate dehydrogenase, with 5 mM glucose-6-phosphate as substrate, served as a NADPH-regenerating system.
For WT P450scc (noted “SA4”, SEQ ID NO: 4) and P450scc-I1A-K193E (noted “SA6”, SEQ ID NO: 6) the concentrations of CYP11A1, Adx and AdR were of 1 μM, 20 μM and 0.5 μM, and for P450scc-R225T-N289D (noted “SA1”, SEQ ID NO: 1) the concentrations of CYP11A1, Adx and AdR were of 0.25 μM, 5 μM and 0.125 μM, respectively.
The samples were pre-warmed to 37° C. and the reaction was started by addition of NADPH to a final concentration of 100 μM. The mixtures were incubated at 37° C. with agitation for 30 s. The reaction was stopped by boiling the samples in water for 30 s.
To allow photometric detection at 240 nm, the steroids were converted into their 3-keto-Δ4 derivatives using a cholesterol oxidase from Nocardia spec.
20 μl of a cholesterol oxidase solution (5 mg cholesterol oxidase and 5 mg Na-cholate dissolved in 5 ml of 50 mM HEPES buffer pH 7, containing 0.05% Tween-20) were added to the samples. After incubation at 37° C. for 1 h, 11-deoxycorticosterone (DOC) was added to the reaction mixtures as an internal standard, followed by a 2-times extraction with equal volumes of ethylacetate. After evaporation, the extracts were dissolved in acetonitrile/water.
After acute evaluation of the concentration of each P450scc preparation, SA1, SA4 and SA6 were used in the following in vitro assays. Each of these isoforms was reconstituted at a concentration of 1 μM in the presence of cholesterol as a substrate (20 μM) in saturating amounts of Adx and AdR.

Row | Molecule | in vivo cholesterol conversion activity compared to SA6 (cholesterol [1]) [fold] | activity compared to SA4 and SA6 (in vitro conversion of cholesterol) (cholesterol [2]; 37° C., 30 s, HPLC (FIG. 1)) | activity, SA4 compared with SA6 (in vitro conversion of cholesterol) (cholesterol [2])
1 | SA1: CYP11A1 comprising a threonine at position 225 and an aspartic acid at position 289 (protein, Mutated amino acid sequence of CYP11A1) ISTKTPRPYSEIPSPGDNGWLNLYHFWREKGSQRIHFRHIENFQKYGPIYREKLGNLESVYIIHPEDVAHLFKFEGSYPERYDIPPWLAYHRYYQKPIGVLFKKSGTWKKDRVVLNTEVMAPEAIKNFIPLLNPVSQDFVSLLHKRIKQQGSGKFVGDIKEDLFHFAFESITNVMFGERLGMLEETVNPEAQKFIDAVYKMFHTSVPLLNVPPELYRLFRTKTWTDHVAAWDTIFNKAEKYTEIFYQDLRRKTEFRNYPGILYCLLKSEKMLLEDVKANITEMLAGGVDTTSMTLQWHLYEMARSLNVQEMLREEVLNARRQAEGDISKMLQMVPLLKASIKETLRLHPISVTLQRYPESDLVLQDYLIPAKTLVQVAIYAMGRDPAFFSSPDKFDPTRWLSKDKDLIHFRNLGFGWGVRQCVGRRIAELEMTLFLIHILENFKVEMQHIGDVDTIFNLILTPDKPIFLVFRPFNQDPPQA | 2 | 2-3 fold | –
2 | SA6: P450scc-I1A-K193E polypeptide, control (protein, Mutated amino acid sequence of CYP11A1, P450scc-I1A-K193E polypeptide, control) ASTKTPRPYSEIPSPGDNGWLNLYHFWREKGSQRIHFRHIENFQKYGPIYREKLGNLESVYIIHPEDVAHLFKFEGSYPERYDIPPWLAYHRYYQKPIGVLFKKSGTWKKDRVVLNTEVMAPEAIKNFIPLLNPVSQDFVSLLHKRIKQQGSGEFVGDIKEDLFHFAFESITNVMFGERLGMLEETVNPEAQKFIDAVYKMFHTSVPLLNVPPELYRLFRTKTWRDHVAAWDTIFNKAEKYTEIFYQDLRRKTEFRNYPGILYCLLKSEKMLLEDVKANITEMLAGGVNTTSMTLQWHLYEMARSLNVQEMLREEVLNARRQAEGDISKMLQMVPLLKASIKETLRLHPISVTLQRYPESDLVLQDYLIPAKTLVQVAIYAMGRDPAFFSSPDKFDPTRWLSKDKDLIHFRNLGFGWGVRQCVGRRIAELEMTLFLIHILENFKVEMQHIGDVDTIFNLILTPDKPIFLVFRPFNQDPPQA | – | – | identical activity
3 | SA4: WT Bos taurus CYP11A1, mature form, wild-type control (protein, listed as Bos taurus) ISTKTPRPYSEIPSPGDNGWLNLYHFWREKGSQRIHFRHIENFQKYGPIYREKLGNLESVYIIHPEDVAHLFKFEGSYPERYDIPPWLAYHRYYQKPIGVLFKKSGTWKKDRVVLNTEVMAPEAIKNFIPLLNPVSQDFVSLLHKRIKQQGSGKFVGDIKEDLFHFAFESITNVMFGERLGMLEETVNPEAQKFIDAVYKMFHTSVPLLNVPPELYRLFRTKTWRDHVAAWDTIFNKAEKYTEIFYQDLRRKTEFRNYPGILYCLLKSEKMLLEDVKANITEMLAGGVNTTSMTLQWHLYEMARSLNVQEMLREEVLNARRQAEGDISKMLQMVPLLKASIKETLRLHPISVTLQRYPESDLVLQDYLIPAKTLVQVAIYAMGRDPAFFSSPDKFDPTRWLSKDKDLIHFRNLGFGWGVRQCVGRRIAELEMTLFLIHILENFKVEMQHIGDVDTIFNLILTPDKPIFLVFRPFNQDPPQA | – | – | identical activity
